Laboratory results published in US20230055411A1 (UNIVERSIT DE BRETAGNE OCCIDENTALE UBO, published 2023).

Legend:
[1] = target: T1, STIM1 protein, mouse (plasma membrane STIM1 on spleen B and T cells of MRL/Lpr and C57Bl/6 mice) (mouse, UniProt P70302 23-685); test: direct flow cytometry with PE coupled B-Y12, spleen B cells of MRL/Lpr mice (n=4) [B cells]
T1 construct: whole, on cells; also called mSTIM1 (mouse)

peptide 2A = target: T2, peptide 2A (biotinylated in the ELISA of Figure 3 panel A); test: ELISA, biotinylated peptide 2A at 100 ng/well, B-Y12 in 1/10 steps
T2 construct: also called STIM1 aa 62 to 95
T2 sequence (peptide, as listed by the source): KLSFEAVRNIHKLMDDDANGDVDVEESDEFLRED
Procedure: (§1) FIG. 3 illustrated the validation by Elisa of the monoclonal anti-STIM1 antibody clone B-Y12. […] Anti-STIM1 mAb clone B-Y12 mAb (10 μg/ml) was diluted to 1/10 and antigens STIM1 biotinylated peptides used at concentrations of 50 ng/well for peptides 1A and 1B and 100 ng/well for peptide 2A and 10 ng/well for peptide 2B). Panel B: Specificity of the B-Y12 antibody for STIM1 is confirmed by ELISA using the peptide 1A and a recombinant STIM1 EF/SAM peptide (1 μg/mL). B-Y12 mAb used at 100 μg/mL diluted to 1/10. Panel C: Specificity for the B-Y12 antibody for the peptide 1A over the other peptides (1A, 1B, 2A, 2B, C2, C3, C4, C5, C6, C7 and C8. Peptides are used at a concentration of 1 μg/mL. Histograms represents mean optical density (OD) measured using an Elisa approach.

[2] = target: T3, recombinant STIM1 EF/SAM peptide (STIM1 aa 58 to 201) (human, UniProt Q13586 58-201); test: Octet, 1 to 1 fitting model, EF-SAM peptide at 133,5 nM [table row 133,5]
T3 construct: also called STIM1 EF/Hand peptide; soluble recombinant protein corresponding to the STIM1 EF-Hand domain
T3 sequence (Q13586 58-201): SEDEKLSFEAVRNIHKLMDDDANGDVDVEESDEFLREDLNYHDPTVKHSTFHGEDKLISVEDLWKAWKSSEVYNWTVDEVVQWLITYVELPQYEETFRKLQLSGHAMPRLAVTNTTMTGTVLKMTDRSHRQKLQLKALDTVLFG
Procedure: (§2) FIG. 10 represents the determination of the anti-STIM1 mAb clone B-Y12 affinity. […] High affinity interaction is characterized by a low K, a fast recognizing (high kon) and a stable formation of complexes (low kdis). kdis: dissociation rate constant. kon: complex formation rate.
(§3) Affinity constants (Kon, Kdis) were calculated.

[3] = target: T3, recombinant STIM1 EF/SAM peptide (STIM1 …); test: Octet, 1 to 1 fitting model, EF-SAM peptide at 200 nM; column kdis(1/S) [table row 200]
Procedure: as §2, §3

[4] = target: T4, STIM1 peptide 1A (STIM1 amino acids 128 to 168) (human, biotinylated in the ELISA of FIG. 3A (position not given)); test: ELISA, Peptide 1A (aa 128-168) coated at 1 µg/mL, B-Y12 titrated
T4 construct: Immunization peptide from the SAM domain of STIM1
T4 sequence (peptide, as listed by the source): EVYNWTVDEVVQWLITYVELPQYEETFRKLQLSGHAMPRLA
Procedure: as §1

[5] = target: T3, recombinant STIM1 EF/SAM peptide (STIM1 …); test: Octet, 1 to 1 fitting model, EF-SAM peptide at 88,8 nM [table row 88,8]
Procedure: as §2, §3

peptide 2B = target: T5, peptide 2B (biotinylated in the ELISA of Figure 3 panel A); test: ELISA, biotinylated peptide 2B at 10 ng/well, B-Y12 in 1/10 steps
T5 construct: also called STIM1 aa 97 to 127
T5 sequence (peptide, as listed by the source): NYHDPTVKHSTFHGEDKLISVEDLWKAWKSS
Procedure: as §1

peptide 1B = target: T6, peptide 1B (biotinylated in the ELISA of Figure 3 panel A); test: ELISA, biotinylated peptide 1B at 50 ng/well, B-Y12 in 1/10 steps
T6 construct: also called STIM1 aa 169 to 197
T6 sequence (peptide, as listed by the source): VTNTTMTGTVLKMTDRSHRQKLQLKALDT
Procedure: as §1

[6] = target: T3, recombinant STIM1 EF/SAM peptide (STIM1 …); test: Octet, 1 to 1 fitting model, EF-SAM peptide at 88,8 nM; column kdis(1/S) [table row 88,8]
Procedure: as §2, §3

[7] = target: T3, recombinant STIM1 EF/SAM peptide (STIM1 …); test: Octet (BLI), 1 to 1 fitting model, EF-SAM peptide at 200, 133.5 and 88.9 nM
Procedure: as §2, §3

[8] = target: T3, recombinant STIM1 EF/SAM peptide (STIM1 …); test: Octet, 1 to 1 fitting model, EF-SAM peptide at 200 nM [table row 200]
Procedure: as §2, §3

[9] = target: T3, recombinant STIM1 EF/SAM peptide (STIM1 …); test: Octet, 1 to 1 fitting model, EF-SAM peptide at 133,5 nM; column kdis(1/S) [table row 133,5]
Procedure: as §2, §3

T1 sequence (P70302 23-685): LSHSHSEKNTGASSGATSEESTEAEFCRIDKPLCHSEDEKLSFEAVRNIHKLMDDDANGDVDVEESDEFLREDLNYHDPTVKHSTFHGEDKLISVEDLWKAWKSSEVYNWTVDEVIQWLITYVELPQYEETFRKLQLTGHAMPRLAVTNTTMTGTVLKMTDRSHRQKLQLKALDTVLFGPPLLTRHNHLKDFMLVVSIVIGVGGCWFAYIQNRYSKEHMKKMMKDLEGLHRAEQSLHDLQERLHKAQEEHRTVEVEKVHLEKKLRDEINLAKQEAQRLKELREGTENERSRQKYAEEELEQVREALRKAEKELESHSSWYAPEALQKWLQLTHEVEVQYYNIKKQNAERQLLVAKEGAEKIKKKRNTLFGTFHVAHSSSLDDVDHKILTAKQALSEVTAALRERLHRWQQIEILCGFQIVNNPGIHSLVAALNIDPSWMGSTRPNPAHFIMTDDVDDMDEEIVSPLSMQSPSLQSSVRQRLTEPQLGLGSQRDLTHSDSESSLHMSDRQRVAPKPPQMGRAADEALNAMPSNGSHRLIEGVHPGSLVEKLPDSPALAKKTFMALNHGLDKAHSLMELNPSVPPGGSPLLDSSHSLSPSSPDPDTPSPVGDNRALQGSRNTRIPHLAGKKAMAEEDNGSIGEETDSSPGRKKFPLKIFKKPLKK

- binding result [1]: binds
- binding result (peptide 2A): no binding
- kon [2]: 23700 M⁻¹ s⁻¹
- koff [3]: 0.0004 s⁻¹
- EC50 (read off the curve) [4]: ~4 ng/mL
- kon [5]: 18800 M⁻¹ s⁻¹
- binding result (peptide 2B): no binding
- binding result (peptide 1B): no binding
- koff [6]: 0.000354 s⁻¹
- Kd [7]: 0.015 µM
- kon [8]: 20000 M⁻¹ s⁻¹
- koff [9]: 0.000322 s⁻¹
B1: monoclonal anti-STIM1 antibody clone B-Y12 (antibody, IgG2b, V domains shown)
VH: QVQLQQPGAELVKPGASVKLSCKASGYTFTSYWMHWVKLRPGQGFEWIGETNPRNGGTNYNEKFKRKATLTVDKSSSTAYMQLSSLTSEDSAVYYCTITKTVRATWYFDYWGQGTTLTVSS
VL: DVLMTQTPLSLPVSLGDQASISCRSSQSIVHSNGNTYLEWYLQKPGQSPKLLIYKVSNRFSGVPDRFSGSGSGTDFTLKISRVEAEDLGVYYCFQGSHVPYTFGGGTKLEIK
notes: In direct flow cytometry it was used coupled to phycoerythrin (PE); also called B-Y12 mAb; anti-STIM1 mAb clone B-Y12
